Measured values taken from US20170066831A1 (Janssen / Centocor, published 2017).
Numbering of substitutions follows the chain as printed. Numbers in names are those of the source. Like-named read-outs stand apart in the source and are kept apart here.

T1: cynomolgus (Macaca fascicularis) ST2L extracellular domain with C-terminal His6 tag (Macaca fascicularis (cynomolgus), UniProt Q01638 19-321 (human entry))
T1 construct: also called cyno ST2L-ECD; cynoST2L-ECD
T1 chain: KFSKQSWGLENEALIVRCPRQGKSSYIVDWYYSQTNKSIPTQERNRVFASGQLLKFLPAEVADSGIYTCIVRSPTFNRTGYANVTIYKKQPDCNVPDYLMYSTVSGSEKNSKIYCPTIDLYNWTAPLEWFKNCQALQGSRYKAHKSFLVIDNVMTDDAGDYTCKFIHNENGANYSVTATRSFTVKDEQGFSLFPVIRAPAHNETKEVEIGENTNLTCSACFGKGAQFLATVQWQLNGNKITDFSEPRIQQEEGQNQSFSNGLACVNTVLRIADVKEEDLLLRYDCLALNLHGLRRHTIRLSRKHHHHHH

T2: human ST2L extracellular domain with C-terminal His6 tag (human, UniProt Q01638 19-328)
T2 construct: also called huST2L-ECD; ST2L-ECD
T2 sequence: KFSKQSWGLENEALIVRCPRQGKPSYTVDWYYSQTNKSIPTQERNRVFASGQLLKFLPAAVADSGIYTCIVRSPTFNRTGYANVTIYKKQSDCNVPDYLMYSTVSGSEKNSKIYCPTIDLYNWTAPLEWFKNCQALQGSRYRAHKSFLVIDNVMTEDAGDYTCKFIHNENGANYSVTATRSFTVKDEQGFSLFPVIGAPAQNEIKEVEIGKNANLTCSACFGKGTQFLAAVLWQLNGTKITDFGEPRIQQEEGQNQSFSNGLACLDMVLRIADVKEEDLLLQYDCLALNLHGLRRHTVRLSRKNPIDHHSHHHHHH

T3: human ST2L, full length, on cells (human, UniProt Q01638 19-556)
T3 sequence: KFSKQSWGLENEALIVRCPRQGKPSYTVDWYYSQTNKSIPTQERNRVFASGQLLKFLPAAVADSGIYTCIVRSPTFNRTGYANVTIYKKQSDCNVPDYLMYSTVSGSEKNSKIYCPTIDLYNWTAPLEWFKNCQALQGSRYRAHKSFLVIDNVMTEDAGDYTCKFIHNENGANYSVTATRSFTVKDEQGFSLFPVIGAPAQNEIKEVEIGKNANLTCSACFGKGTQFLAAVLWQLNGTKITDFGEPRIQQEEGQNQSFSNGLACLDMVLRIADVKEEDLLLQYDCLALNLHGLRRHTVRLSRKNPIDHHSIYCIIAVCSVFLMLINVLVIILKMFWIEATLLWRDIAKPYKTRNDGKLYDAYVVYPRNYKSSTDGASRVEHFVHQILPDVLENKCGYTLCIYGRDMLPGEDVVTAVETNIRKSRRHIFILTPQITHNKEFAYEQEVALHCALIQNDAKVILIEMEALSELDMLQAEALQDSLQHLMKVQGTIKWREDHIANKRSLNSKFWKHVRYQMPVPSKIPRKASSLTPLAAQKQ

T4: mouse ST2L extracellular domain (mouse, UniProt P14719 28-326)
T4 construct: also called mouse ST2L-ECD; muST2L-ECD
T4 sequence: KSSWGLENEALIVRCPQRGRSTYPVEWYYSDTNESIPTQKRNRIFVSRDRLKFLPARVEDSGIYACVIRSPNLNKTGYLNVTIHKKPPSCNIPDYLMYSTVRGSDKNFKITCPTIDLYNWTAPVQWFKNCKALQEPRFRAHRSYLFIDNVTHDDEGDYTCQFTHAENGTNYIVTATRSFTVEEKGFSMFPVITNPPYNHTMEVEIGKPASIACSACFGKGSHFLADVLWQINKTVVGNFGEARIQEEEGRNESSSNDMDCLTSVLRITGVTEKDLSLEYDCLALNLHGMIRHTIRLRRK

B1: STLM210 (antibody, V domains shown)
VH: EVQLLESGGGLVQPGGSLRLSCAASGFTFSDDAMIWVRQAPGKGLEWVSYIGGNGGTTYYADSVKGRFTISRDNSKNTLYLQMNSLRAEDTAVYYCARDPWSTEGSFFVLDYWGQGTLVTVSS
VL: EIVLTQSPATLSLSPGERATLSCRASQSVDDDLAWYQQKPGQAPRLLIYDASNRATGIPARFSGSGSGTDFTLTISSLEPEDFAVYYCQQYNDAITFGQGTKVEIK
notes: frameworks VH3-23 / Vk-L6
B2: STLM212 (antibody, V domains shown)
VH: B1 VH with D31V, D32Y, A33D, Y50T, G52R, N54E, T57G
VL: B1 VL
notes: frameworks VH3-23 / Vk-L6
B3: C2519 (antibody, V domains shown)
VH: EFQLQQSGPELVKPGASVKISCKASGYSFTDYNMNWVKQSHGKSLEWIGNINPYYGSTTYNQKFKGKATLTVDKSSNTAYMHLNSLTSEDSAVYYCAREGDTYLAWFAYWGQGTLVTVSA
VL: DVLMTQTPLSLPVSLGDQASISCRSSQSIVYSNGNTYLEWYLQKPGQSPKLLIYKVSNRFSGVPDRFSGSGSGTDFTLKISRVEAEDLGVYYCFQGSHVPPTFGGGTKLEIK
notes: Mouse hybridoma antibody; also called C2519A
B4: ST2M48 (antibody, V domains shown)
VH: EVQLVQSGAEVKKPGESLKISCKGSGYSFTSYWIGWVRQMPGKGLEWMGIIYPGDSYTRYSPSFQGQVTISADKSISTAYLQWSSLKASDTAMYYCARLSGRFDYWGQGTLVTVSS
VL: EIVLTQSPATLSLSPGERATLSCRASQSVRDALAWYQQKPGQAPRLLIYFASNRATGIPARFSGSGSGTDFTLTISSLEPEDFAVYYCQQFNTWPITFGQGTKVEIK
notes: Phage-derived Fab converted to IgG
B5: C2521 (antibody, V domains shown)
VH: QIQLQQSGPELVRPGTSVKISCKASGYTFLTYWMNWVKQRPGQGLEWIGQIFPASGSTYYNEMFKDKATLTVDTSSSTAYMQLSSLTSEDTAVYFCARSENIYYINFQYYFAYWGQGTTLTVSS
VL: ILLTQSPAILSVSPGERVSFSCRASQNIGTRMHWYQQRTNGSPRLLIKYASESISGIPSRFSGSGSGTDFTLTISSVESEDIADYYCQQSNTWPFTFGSGTKLEIK
notes: Mouse hybridoma antibody; also called C2521A
B6: STLM226 (antibody, V domains shown)
VH: EVQLVQSGAEVKKPGATVKISCKVSAFNIKDDYMHWVQQAPGKGLEWMGRIDPAIGNTEYAEKFQGRVTITADTSTDTAYMELSSLRSEDTAVYYCATGDFYAMAYWGQGTLVTVSS
VL: DIQMTQSPSSLSASVGDRVTITCITNTDIDDVIHWYQQKPGKAPKLLIYEGNTLRPGVPSRFSGSGSGTDFTLTISSLQPEDFATYYCLQSDNLLTFGQGTKLEIK
notes: VH STLH201 + VL STLL280
B7: STLM232 (antibody, V domains shown)
VH: B6 VH
VL: B6 VL with L73F, F83I, L94M
notes: VH STLH201 + VL STLL272
B8: STLM229 (antibody, V domains shown)
VH: B6 VH
VL: B6 VL with L11V, L94M
notes: VH STLH201 + VL STLL275
B9: STLM227 (antibody, V domains shown)
VH: B6 VH
VL: B6 VL with M4L, S10F, D70E, L94M
notes: VH STLH201 + VL STLL277
B10: STLM230 (antibody, V domains shown)
VH: B6 VH
VL: B6 VL with L94M
notes: VH STLH201 + VL STLL274
B11: STLM228 (antibody, V domains shown)
VH: B6 VH
VL: B6 VL with S10T, D70E, E81D, L94M
notes: VH STLH201 + VL STLL276
B12: STLM231 (antibody, V domains shown)
VH: B6 VH
VL: B6 VL with A43V, F83V, L94M
notes: VH STLH201 + VL STLL273; also called S1LM231

What was measured:
[1] = molecular target: T1, cynomolgus (Macaca fascicularis) ST2L …; assay: SPR, mAb captured, ST2L-ECD in solution
[2] = molecular target: T2, human ST2L extracellular domain with …; assay: SPR, mAb captured, ST2L-ECD in solution
[3] = molecular target: T2, human ST2L extracellular domain with …; assay: RLB ELISA: biotinylated IL-33 on coated huST2L-ECD, antibody titrated
Method: 96-well plate was coated with 50 μl of 4 μg/ml human ST2L-ECD (amino acids 19-328 of SEQ ID NO: 1) or 2 μg/ml cyno ST2L-ECD (amino acids 19-321 of SEQ ID NO: 2) having C-terminal His₆ tag in bicarbonate buffer at 4° C. for 16 hrs. All subsequent steps were performed at room temperature. Plate was blocked with 200 μl blocking buffer, and was washed 3 times with 300 μl of wash buffer containing PBS+0.05% Tween. 30 μl of various dilutions of anti-ST2L mAbs were added to the wells and incubated for 1 hour. For human receptor-ligand binding assay 20 μl of biotinylated human IL-33 (residues 112-270 of SEQ ID NO: 3) was added at 100 ng/ml final concentration and incubated for 30 minutes. For cyno receptor-ligand binding assay 20 μl of biotinylated cyno IL-33 (residues 112-269 of SEQ ID NO: 4) was added at 200 ng/ml final concentration and incubated for 30 minutes. The plate was washed 3 times with 300 μl of wash buffer. 50 μl of 0.2 μg/ml Streptavidin-HRP (Jackson Immunoresearch) was added and incubated for 30 min. The plate was washed 3 times with 300 μl of wash buffer containing PBS+0.05% Tween. 50 μl of TMB substrate (EMD Biosciences) was added to each well. Reaction was stopped by the addition of 100 μl of 0.2N Sulfuric Acid. OD450 were measured using Envision plate reader (Perkin Elmer).

[4] = molecular target: T3, human ST2L, full length, on cells; assay: cell-based or functional assay
[5] = molecular target: T1, cynomolgus (Macaca fascicularis) ST2L …; assay: SPR, mAb captured, ST2L-ECD in solution
[6] = molecular target: T2, human ST2L extracellular domain with …; assay: SPR, mAb captured, ST2L-ECD in solution; remark: listed apart in the source
[7] = molecular target: T4, mouse ST2L extracellular domain; assay: domain binding assay
Method: Antibody binding to ST2L domain I, II and III was determined using standard capture ELISA assay using electrochemiluminescent detection format (Meso-Scale Discovery (MSD) technology). 10 μg/mL of each antibody was coated onto each well of an MSD HighBind plate (5 μL/well) for 2 hr at room temperature. […] The plate was covered with aluminum foil and incubated for 1 hr at room temperature with gentle shaking. The plate was then washed 3 times with HEPES wash buffer. MSD read buffer (150 μl) was added to each well, and the plate was then read using an MSD Sector Imager 6000.

| Binder | Kd [1] | koff [1] | kon [1] | Kd [2] | koff [2] | kon [2] | IC50 [3] | RGA IC50 [4] | Kd [5] | koff [5] | kon [5] | Kd [6] | koff [6] | kon [6] | binding result [7] |
| --- | --- | --- | --- | --- | --- | --- | --- | --- | --- | --- | --- | --- | --- | --- | --- |
| B1 | 0.009 nM | 0.000528 s⁻¹ | 5.7e+07 M⁻¹ s⁻¹ | 0.019 nM | 0.000227 s⁻¹ | 1.21e+07 M⁻¹ s⁻¹ | 0.3 µg/mL | 2.1 µg/mL |  |  |  |  |  |  |  |
| B2 | 0.024 nM | 0.000346 s⁻¹ | 1.43e+07 M⁻¹ s⁻¹ | 0.032 nM | 0.000398 s⁻¹ | 1.24e+07 M⁻¹ s⁻¹ | 0.33 µg/mL | 4.32 µg/mL |  |  |  |  |  |  |  |
| B3 |  |  |  |  |  |  |  |  | 44.8 nM | 0.0032 s⁻¹ | 71400 M⁻¹ s⁻¹ | 0.18 nM | 8.7e-05 s⁻¹ | 483000 M⁻¹ s⁻¹ |  |
| B4 |  |  |  |  |  |  |  |  | 0.257 nM | 0.00265 s⁻¹ | 1.03e+07 M⁻¹ s⁻¹ | 0.056 nM | 7.33e-05 s⁻¹ | 1.32e+06 M⁻¹ s⁻¹ | binds |
| B5 |  |  |  |  |  |  |  |  | 3.71 nM | 0.00166 s⁻¹ | 447000 M⁻¹ s⁻¹ | 0.079 nM | 4.9e-05 s⁻¹ | 618000 M⁻¹ s⁻¹ |  |
| B6 | 0.301 nM | 0.0301 s⁻¹ | 1e+08 M⁻¹ s⁻¹ | 0.09 nM | 0.00193 s⁻¹ | 2.16e+07 M⁻¹ s⁻¹ | 0.26 µg/mL | 0.25 µg/mL |  |  |  |  |  |  |  |
| B7 | 0.08 nM | 0.00797 s⁻¹ | 1e+08 M⁻¹ s⁻¹ | 0.025 nM | 0.000449 s⁻¹ | 1.78e+07 M⁻¹ s⁻¹ | 0.31 µg/mL | 0.15 µg/mL |  |  |  |  |  |  |  |
| B8 | 0.085 nM | 0.0085 s⁻¹ | 1e+08 M⁻¹ s⁻¹ | 0.035 nM | 0.000445 s⁻¹ | 1.29e+07 M⁻¹ s⁻¹ | 0.29 µg/mL | 0.32 µg/mL |  |  |  |  |  |  |  |
| B9 | 0.294 nM | 0.0294 s⁻¹ | 1e+08 M⁻¹ s⁻¹ | 0.064 nM | 0.0017 s⁻¹ | 2.66e+07 M⁻¹ s⁻¹ | 0.17 µg/mL | 0.23 µg/mL |  |  |  |  |  |  |  |
| B10 | 0.144 nM | 0.0073 s⁻¹ | 5.06e+07 M⁻¹ s⁻¹ | 0.038 nM | 0.000426 s⁻¹ | 1.11e+07 M⁻¹ s⁻¹ | 0.28 µg/mL | 0.15 µg/mL |  |  |  |  |  |  |  |
| B11 | 0.155 nM | 0.0155 s⁻¹ | 1e+08 M⁻¹ s⁻¹ | 0.052 nM | 0.00104 s⁻¹ | 2.01e+07 M⁻¹ s⁻¹ | 0.2 µg/mL | 0.28 µg/mL |  |  |  |  |  |  |  |
| B12 | 0.172 nM | 0.0143 s⁻¹ | 8.27e+07 M⁻¹ s⁻¹ | 0.046 nM | 0.000913 s⁻¹ | 1.97e+07 M⁻¹ s⁻¹ | 0.26 µg/mL | 1.1 µg/mL |  |  |  |  |  |  |  |
